Laboratory results published in article PMC13042514, “Comprehensive Profiling of N 6‐methyladnosine (m6A) Readouts Reveals Novel m6A Readers That Regulate Human Embryonic Stem Cell Differentiation”.

Legend:
Assay in all cases: EMSA; EMSA: Beyotime GS606 kit binding buffer (composition not given), 1 ug protein and 1 uL of 2.5 nM biotin probe in 10 uL, on ice 10 min; pull-down: Pierce 20164 kit, 50 pmol RNA, 200 ug total protein, 4 C 30-60 min
Conditions in all cases: protein: recombinant; tags: GST; label: biotin; single strand
GST-L1TD1 = molecular target: T1, GST-L1TD1 (UniProt Q5T7N2 1-865)
T1 sequence: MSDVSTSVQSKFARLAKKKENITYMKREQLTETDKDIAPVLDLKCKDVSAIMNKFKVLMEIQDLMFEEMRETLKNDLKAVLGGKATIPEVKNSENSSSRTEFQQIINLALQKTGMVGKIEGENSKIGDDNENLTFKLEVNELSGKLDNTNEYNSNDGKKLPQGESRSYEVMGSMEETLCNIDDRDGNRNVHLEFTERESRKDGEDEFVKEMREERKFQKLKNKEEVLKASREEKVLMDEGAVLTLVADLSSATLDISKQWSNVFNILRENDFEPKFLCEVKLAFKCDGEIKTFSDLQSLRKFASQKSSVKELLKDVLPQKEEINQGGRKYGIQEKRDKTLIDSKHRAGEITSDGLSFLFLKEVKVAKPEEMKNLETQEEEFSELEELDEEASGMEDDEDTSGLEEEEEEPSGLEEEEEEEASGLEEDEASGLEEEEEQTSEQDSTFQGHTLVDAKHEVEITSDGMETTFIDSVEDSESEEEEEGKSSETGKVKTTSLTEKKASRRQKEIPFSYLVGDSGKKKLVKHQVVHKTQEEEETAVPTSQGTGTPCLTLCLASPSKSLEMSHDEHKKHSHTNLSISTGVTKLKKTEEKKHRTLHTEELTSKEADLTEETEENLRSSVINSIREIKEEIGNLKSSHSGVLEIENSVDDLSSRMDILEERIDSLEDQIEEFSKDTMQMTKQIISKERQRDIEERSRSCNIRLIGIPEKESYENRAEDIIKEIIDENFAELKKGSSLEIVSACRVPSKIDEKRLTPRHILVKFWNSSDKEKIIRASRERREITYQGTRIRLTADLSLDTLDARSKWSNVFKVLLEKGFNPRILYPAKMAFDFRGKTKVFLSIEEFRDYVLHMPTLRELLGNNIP

GST-DDX6 = GST-DDX6 (UniProt P26196 1-483)
Chain of GST-DDX6 (P26196 whole entry): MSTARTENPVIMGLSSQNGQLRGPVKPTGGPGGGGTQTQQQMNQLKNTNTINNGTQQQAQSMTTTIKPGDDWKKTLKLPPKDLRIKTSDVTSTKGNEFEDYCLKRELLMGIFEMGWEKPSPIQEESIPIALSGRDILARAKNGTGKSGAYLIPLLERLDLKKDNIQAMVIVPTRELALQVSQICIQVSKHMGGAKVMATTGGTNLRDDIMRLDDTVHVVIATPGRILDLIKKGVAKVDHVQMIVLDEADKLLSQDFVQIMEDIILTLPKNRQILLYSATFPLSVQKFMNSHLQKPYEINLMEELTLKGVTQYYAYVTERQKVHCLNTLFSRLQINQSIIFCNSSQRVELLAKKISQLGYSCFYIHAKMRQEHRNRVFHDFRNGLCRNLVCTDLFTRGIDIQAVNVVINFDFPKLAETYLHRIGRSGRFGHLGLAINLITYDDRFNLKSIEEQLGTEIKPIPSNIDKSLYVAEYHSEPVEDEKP

GST-FXR2 = GST-FXR2 (UniProt P51116 1-673)
Chain of GST-FXR2 (P51116 whole entry): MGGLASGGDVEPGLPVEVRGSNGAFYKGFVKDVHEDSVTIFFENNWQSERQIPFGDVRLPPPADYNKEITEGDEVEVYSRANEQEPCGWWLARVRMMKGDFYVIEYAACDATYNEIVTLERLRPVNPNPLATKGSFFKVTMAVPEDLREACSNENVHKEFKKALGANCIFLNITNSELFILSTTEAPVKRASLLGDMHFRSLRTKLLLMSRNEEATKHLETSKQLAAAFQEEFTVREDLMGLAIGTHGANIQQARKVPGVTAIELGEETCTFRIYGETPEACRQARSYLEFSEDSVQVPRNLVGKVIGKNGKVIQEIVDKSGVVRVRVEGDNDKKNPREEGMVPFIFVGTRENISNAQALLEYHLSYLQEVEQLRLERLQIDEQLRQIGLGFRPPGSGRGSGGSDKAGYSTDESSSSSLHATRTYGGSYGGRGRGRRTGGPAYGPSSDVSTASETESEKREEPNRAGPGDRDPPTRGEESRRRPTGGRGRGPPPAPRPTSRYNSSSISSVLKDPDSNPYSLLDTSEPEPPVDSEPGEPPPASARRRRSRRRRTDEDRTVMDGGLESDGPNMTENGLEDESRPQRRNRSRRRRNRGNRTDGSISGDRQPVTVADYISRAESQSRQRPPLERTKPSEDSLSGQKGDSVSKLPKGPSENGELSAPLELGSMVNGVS

GST-FUBP3 = GST-FUBP3 (UniProt Q96I24 1-572)
Chain of GST-FUBP3 (Q96I24 whole entry): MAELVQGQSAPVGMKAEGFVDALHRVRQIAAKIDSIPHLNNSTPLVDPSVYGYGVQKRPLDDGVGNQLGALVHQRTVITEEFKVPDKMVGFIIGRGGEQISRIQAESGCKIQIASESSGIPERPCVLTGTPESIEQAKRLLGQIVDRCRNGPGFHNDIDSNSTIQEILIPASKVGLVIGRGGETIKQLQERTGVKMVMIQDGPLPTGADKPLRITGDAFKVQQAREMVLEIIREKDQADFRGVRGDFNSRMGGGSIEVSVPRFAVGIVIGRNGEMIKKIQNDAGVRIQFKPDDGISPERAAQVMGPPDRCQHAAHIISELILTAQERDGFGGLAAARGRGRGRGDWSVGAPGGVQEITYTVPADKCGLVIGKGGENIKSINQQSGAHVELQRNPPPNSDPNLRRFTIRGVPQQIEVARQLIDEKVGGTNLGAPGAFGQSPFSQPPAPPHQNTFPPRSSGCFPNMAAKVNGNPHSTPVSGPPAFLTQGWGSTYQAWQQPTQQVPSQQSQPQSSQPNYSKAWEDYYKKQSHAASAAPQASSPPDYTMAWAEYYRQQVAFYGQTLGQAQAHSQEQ

Measured: binding result

B1: ss-m6A (EMSA) (ssRNA)
RNA: CGUCUCGGACUCGGACUGCU
modifications: m6A at positions 9 and 15
binds: all assays above
